The results in this text go back to patent publication US12365732 (23ANDME, dated 2025).

Residue numbers refer to the chain shown, from its start. In names and notes the source's numbering stands.

What is called EC50 is the concentration that produces a half-maximal response. For orientation: Kd means the free concentration of one partner at which half of the binding sites on the other are occupied at equilibrium, for simple one-to-one binding. One may read the koff as a measure of how fast the partners let go of each other. What is called kon is the rate constant with which the complex forms.

Sequences and labels used below:
T1: cynomolgus monkey CD96 on cynomolgus monkey PBMCs (cynomolgus monkey, UniProt A0A2K5TWV6 22-569)
T1 construct: whole, on cells
T1 sequence: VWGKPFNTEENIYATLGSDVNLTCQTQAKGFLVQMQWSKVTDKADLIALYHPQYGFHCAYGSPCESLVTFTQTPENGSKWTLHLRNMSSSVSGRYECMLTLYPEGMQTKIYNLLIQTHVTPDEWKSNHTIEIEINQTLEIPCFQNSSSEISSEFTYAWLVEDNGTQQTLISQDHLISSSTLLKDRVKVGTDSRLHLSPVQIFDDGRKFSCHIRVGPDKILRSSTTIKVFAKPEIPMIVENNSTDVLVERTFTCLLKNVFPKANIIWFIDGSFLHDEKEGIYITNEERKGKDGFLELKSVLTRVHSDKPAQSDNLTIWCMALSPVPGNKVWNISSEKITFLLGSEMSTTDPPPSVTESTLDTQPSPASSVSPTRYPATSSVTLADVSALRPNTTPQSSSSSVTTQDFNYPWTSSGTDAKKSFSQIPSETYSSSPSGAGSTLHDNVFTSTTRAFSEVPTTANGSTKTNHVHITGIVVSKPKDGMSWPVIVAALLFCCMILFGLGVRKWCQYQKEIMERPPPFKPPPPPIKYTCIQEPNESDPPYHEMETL

T2: hu-CD96 isoform 1 on HEK293T cells (human, UniProt P40200 22-585)
T2 construct: Origene RC213845, transient expression; also called HEK293T-CD96 (iso1)
T2 sequence: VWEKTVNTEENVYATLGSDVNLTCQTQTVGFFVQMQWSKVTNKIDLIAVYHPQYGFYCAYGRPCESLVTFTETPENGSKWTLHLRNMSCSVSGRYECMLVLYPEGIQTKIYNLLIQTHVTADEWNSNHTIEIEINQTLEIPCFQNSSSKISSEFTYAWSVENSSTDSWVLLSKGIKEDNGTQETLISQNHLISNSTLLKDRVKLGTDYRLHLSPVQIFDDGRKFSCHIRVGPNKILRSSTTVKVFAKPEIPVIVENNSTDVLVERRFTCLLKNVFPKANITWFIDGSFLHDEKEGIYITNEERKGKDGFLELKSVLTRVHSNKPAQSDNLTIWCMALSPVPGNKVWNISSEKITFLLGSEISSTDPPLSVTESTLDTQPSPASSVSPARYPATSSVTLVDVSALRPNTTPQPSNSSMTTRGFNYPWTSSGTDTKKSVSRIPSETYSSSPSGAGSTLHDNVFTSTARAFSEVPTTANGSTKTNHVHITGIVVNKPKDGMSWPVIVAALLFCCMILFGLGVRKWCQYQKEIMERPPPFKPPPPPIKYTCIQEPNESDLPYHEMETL

B1: h10G1 IgG (humanized 10G1) (antibody, V domains shown)
VH: EIQLVQSGSELKKPGASVKVSCKASGYPFTTYGMSWVRQAPGQGLEWMGWINTDSGVPTYADDFKGRFVFSLDTSVSTAYLQISSLKAEDTAVYFCARNIYYGWGNFDYWGQGTLVTVSS
VL: EIVMTQSPDFQSVTPKEKVTITCRASQDIYRNLHWYQQKPDQTPKLLIKHASDSISGIPSRFSGSGSGTDFTLTINSLEAEDAAAYYCLQGYSMPYTFGGGTKVEIKG
notes: human IgG1 N297G
B2: mAb1.v7.NGS11 IgG (antibody, V domains shown)
VH: EVQLVQSGAEVKKPGASVKVSCKASGFTFTNNFMHWVRQAPGQGLEWIGFIHANSGITNINEKFKNRVTMTTDTSTSTAYMELRSLRSEDTAVYYCRSDGVYEGYFDYWGQGTLVTVSS
VL: DIQLTQSPSSLSASVGDRVTITCKASQNVGTAIVWYQQKPGKAPKVLIYSASTRYTGVPSRFSGSGSGTDFTLTISSLQPEDFATYYCQQYSSSPLTFGQGTKVEIKG
notes: human IgG1 N297G
B3: mAb1.v7.NGS9 IgG (antibody, V domains shown)
VH: B2 VH with F50M
VL: B2 VL
notes: human IgG1 N297G
B4: mAb1.v7.NGS10 IgG (antibody, V domains shown)
VH: B2 VH with V101I
VL: B2 VL
notes: human IgG1 N297G
B5: 7E5, purified hybridoma antibody (antibody, V domains shown)
VH: QVQLKESGPGLVAPSQSLSIICTVSGFSLTNYGIHWIRQPPGKGLEWLGIIWAGGSTNYNSALMSRLTISKDNSKSQVFLKMNSLQTNDTAIYYCARVSMMGFAYWGQGTLVTVSA
VL: QAVVTQESALTTSPGETVTLTCRSSTGAVTTSNYANWVQEKPDHLFTGLIGGTNNRAPGVPARFSGSLIGDKAALTITGAQTEDEAIYFCSLWYGSHWVFGGGTKLTVL
notes: murine hybridoma IgG
B6: 10G1 (clone 10G1.3G8), purified hybridoma antibody (antibody, V domains shown)
VH: QIQLVQSGPELKKPGETVKISCKASGYPFTTYGMSWVKQAPGKGLKWMGWINTDSGVPTYADDFKGRFAFSLETSANTAYLQINSLKNEDAATYFCARNIYYGWGNFDYWGQGTILTVSS
VL: DILMTQSPTTLSVTPGETVSLSCRASQDIYRNLHWYQQKSQGTPRLLIKHASDSISGIPSRFTGSGSGTDFTLSINSVKPEDEGIYYCLQGYSMPYTFGGGTKLEIK
notes: murine hybridoma IgG
B7: mAb1.v7 IgG (humanized 12F8) (antibody, V domains shown)
VH: B2 VH with F33W, F50M, A53P, V101T
VL: B2 VL
notes: human IgG1 N297G
B8: 9H4, purified hybridoma antibody (antibody, V domains shown)
VH: EVQLLETGGGLVKSGGSLKLSCAASGFTFSDYYMYWVRQTPEKRLEWVAAISDDGTYTYYPDSVKGRFTISRDNANNYLYLQMSSLKSEDTAIYYCAKAGSYDYFDVWGAGTTVTVSS
VL: DIVLTQSPASLAVSLGQRAIISCKASQSVTFADTGLMHWYQQKPGQQPKLLIYRASNLEVGVPTRFSGSGSGTDFTLNIHPVEEEDVATYYCQQSREYPWTFGGGTKLEIK
notes: murine hybridoma IgG
B9: mAb1.v7.2 Fab (Fab, V domains shown)
VH: B2 VH with F33W, M34R, F50M, A53F
VL: DIQLTQSPSSLSASVGDRVTITCKASQNVGTAIVWYQQKPGKAPKVLIYSASTRYTGVPSRFSGSGSGTDFTLTISSLQPEDFATYYCQQYSSSPLTFGQGTKVEIK
notes: also called M34R/P52aF/T97V
B10: mAb1.v7.70 Fab (Fab, V domains shown)
VH: B2 VH with N32R, F33W, F50M
VL: B9 VL
notes: also called N32R/P52aA/T97V
B11: mAb1.v7.48 Fab (Fab, V domains shown)
VH: B2 VH with N32R, F33W, F50M, A53H
VL: B9 VL
notes: also called N32R/P52aH/T97V
B12: mAb1.v7.9 Fab (Fab, V domains shown)
VH: B2 VH with F33W, M34R, F50M, A53M
VL: B9 VL
notes: also called M34R/P52aM/T97V
B13: mAb1.v7.16 Fab (Fab, V domains shown)
VH: B2 VH with F33W, M34R, F50M, A53P
VL: B9 VL
notes: also called M34R/T97V

T3 sequence (chain, as listed by the source): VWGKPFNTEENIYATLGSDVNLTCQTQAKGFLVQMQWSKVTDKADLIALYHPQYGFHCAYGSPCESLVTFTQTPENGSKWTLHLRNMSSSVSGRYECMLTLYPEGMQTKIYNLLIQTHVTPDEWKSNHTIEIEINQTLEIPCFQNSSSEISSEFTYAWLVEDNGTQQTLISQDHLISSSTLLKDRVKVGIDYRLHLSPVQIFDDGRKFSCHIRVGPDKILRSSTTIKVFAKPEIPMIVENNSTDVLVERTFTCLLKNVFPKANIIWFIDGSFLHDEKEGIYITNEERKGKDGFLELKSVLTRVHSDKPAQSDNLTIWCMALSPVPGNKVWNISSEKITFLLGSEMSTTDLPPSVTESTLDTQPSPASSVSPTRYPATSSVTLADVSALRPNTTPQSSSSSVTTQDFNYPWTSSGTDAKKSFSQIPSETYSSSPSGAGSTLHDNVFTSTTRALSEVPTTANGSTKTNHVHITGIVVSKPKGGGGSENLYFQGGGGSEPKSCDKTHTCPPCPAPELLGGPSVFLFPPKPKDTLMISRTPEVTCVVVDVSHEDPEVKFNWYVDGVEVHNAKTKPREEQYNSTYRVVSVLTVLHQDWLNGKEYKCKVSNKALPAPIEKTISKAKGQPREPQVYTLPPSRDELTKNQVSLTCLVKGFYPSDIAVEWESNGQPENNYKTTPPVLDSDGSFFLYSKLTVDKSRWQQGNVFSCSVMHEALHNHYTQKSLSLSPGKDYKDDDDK

In the first assay the target is T1, cynomolgus monkey CD96 on cynomolgus …. In words: FACS, Ab 0.0256 nM. How it is done:
(§1) The ability of the anti-CD96 antibodies to bind primary immune cells from human and cynomolgus monkey with lower level of receptor expression was measured. Human PBMCs (StemCell Technologies, catalog #70025) and cynomolgus monkey PBMCs (Primate Biologicals, catalog #CM-MC) were incubated with human TruStain FcX (Biolegend, catalog #422302) for 10 minutes at 4° C., followed by incubation with an anti-CD96 antibody for 20 minutes at 4° C. Cells were washed and the anti-CD96 antibody binding was detected by incubation with anti-mouse IgG-PE (Thermo Fisher, catalog #M30204) or anti-human IgG (Fab) 2-PE (Thermo Fisher, catalog #H10104) for 20 minutes at 4° C. Cells were washed, and immune subtypes were labeled with anti-CD3 (BD, catalog #557705), anti-CD4 (Biolegend, catalog #317424) and anti-CD8 (BD, catalog #557760) for 20 minutes at 4° C. Cell binding was analyzed by flow cytometry with a CytoFLEX (Beckman Coulter). Binding curves were calculated as a percentage of cells positive for bound antibody in the cell type of interest.
On the technique in general: Flow cytometry measures light scatter and fluorescence of single cells or particles in a stream.
Regarding B1, the “% positive” value came out at 16.8%.

Turning to B2, the “% positive” value came to 41%.

In the case of B3, the “% positive” value came out at 19.7%.

With B4, the “% positive” value worked out at 37.2%.

Another assay addresses T2, hu-CD96 isoform 1 on HEK293T cells. As to the kind of experiment: FACS, % positive curve. On the procedure:
Isoform 1 of hu-CD96 (Origene, catalog #RC213845) was transiently expressed in HEK293T cells following standard lipofectamine or Fugene transfection protocol. […] Cells were washed, and binding was detected by incubation with anti-mouse IgG-FITC (Biolegend, catalog #406001) for 20 minutes at 4° C. Cell binding was analyzed by flow cytometry with a CytoFLEX (Beckman Coulter). Binding curves were calculated as a percentage of cells positive for bound antibody.
Regarding B5, the EC50 was found to be 0.71 nM.

For B6, it took 0.24 nM to reach a half-maximal effect (EC50).

For the molecule B7, it took 2.6 nM to reach a half-maximal effect (EC50).

Molecule B8 gave an EC50 of 2.1 nM.

The next assay addresses T1, cynomolgus monkey CD96 on cynomolgus …. In words: FACS, % positive curve. On the procedure:
as §1
B1 registered an EC50 of 0.12 nM.

B2 displayed an EC50 of 0.025 nM.

B3 returned an EC50 of 0.073 nM.

B4 yielded an EC50 of 0.024 nM.

Another assay addresses T3, cy-CD96 Fc (cynomolgus monkey, biotinylated in Table 16).
T3 construct: also called biotinylated cy-CD96-Fc
In words: SPR 25C, CD96-Fc on Protein A, Fab analyte. On the procedure: Briefly, hu-CD96 Fc and cy-CD96 Fc were diluted at 10 µg/mL in HBS-P buffer (0.01 M HEPES pH 7.4, 0.15 M NaCl, 0.005% Surfactant P20) and applied to the Protein A chip at 30 µL/min flow rate for 60 s in flow cell 2 (FC2). Then flow 3-fold serial dilutions of mAb1.v7 Fab variants in HBS-P buffer (0.01 M HEPES pH 7.4, 0.15 M NaCl, 0.005% surfactant P20) from (0.4 nM) to high (1000 nM) were injected (flow rate: 30 µL/min) at 25° C. to both flow cell 1 (FC1) and flow cell 2 (FC2). The sensorgram was recorded and subject to reference and buffer subtraction before evaluating by BIA- CORE® 8K Evaluation Software (version 1.1.1.7442). Association rates ($kon$) and dissociation rates ($koff$) were calculated using a simple one-to-one Langmuir binding model. The equilibrium dissociation constant (K_D) was calculated as the ratio of $koff/kon$, and the values determined for the mAb1.v7 and the 5 Fab variants are summarized in Table 10 (below).
Molecule B9 registered a Kd of 9.24 nM, a koff of 0.00024 s⁻¹ and a kon of 26000 M⁻¹ s⁻¹.

As to B10, the affinity, expressed as Kd, was 5 nM; the koff came to 0.000189 s⁻¹; the kon was found to be 37200 M⁻¹ s⁻¹.

The molecule B11 gave an equilibrium dissociation constant (Kd) of 8.9 nM, a koff of 0.000328 s⁻¹ and a kon of 36600 M⁻¹ s⁻¹.

Take B12: the Kd came out at 22 nM, the koff amounted to 0.000802 s⁻¹ and the kon worked out at 36400 M⁻¹ s⁻¹.

In turn, B13 had a Kd of 94 nM, a koff of 0.000972 s⁻¹ and a kon of 10400 M⁻¹ s⁻¹.
